B1: HDV Ribozyme (parent)
chain: GGCCGGCAUGGUCCCAGCCUCCUCGCUGGCGCCGGCUGGGCAACAUUCCGAGGGGACCGUCCCCUCGGUAAUGGCGAAUGGGACCCA

Variants of: B1
Test: self-cleavage, relative activity (ratio to wild type); higher = more cleavage; co-transcriptional

Variant | self-cleavage
GGCCGGCAUGGUCCCAGCCUCCUCGCUGGCGCCGGCUGGGCAACAUUCCGAGGGGACCGUCCCCUCGGUAAUGGCGAAUAGGACCUA [G80A C86U] | 0.409
GGCCGGCAUGGUCCCAGCCUCCUCGCUGGCGCCGGCUGGGCAACAUUCCGAGGGGACCGUCCCCUCUGUAAUGGCCAAUGGGACCCA [G67U G76C] | 1.1
GGCCGGCAUGGUCCCAGCCUCCUCGCUGGCGCCGGCUGGGCAACAUUCCGAGCGGACCGUCCCCUCGGUAAUGGCGAAUGGAACCCA [G53C G82A] | 0.383
GGCCGGCAUGGGCCCAGCCUCCUCGCUGGCGCCGGCUGGGCAACAUUCCGAGGUGACCGUCCCCUCGGUAAUGGCGAAUGGGACCCA [U12G G54U] | 0.793
GGUCGGCAUGGUCCCAGCCUCCUCGCUGGCGCCGGCUGGGCAACAUUCCGAGGGGACAGUCCCCUCGGUAAUGGCGAAUGGGACCCA [C3U C58A] | 0.818
GGCCGCCAUGGUCCCAGCCGCCUCGCUGGCGCCGGCUGGGCAACAUUCCGAGGGGACCGUCCCCUCGGUAAUGGCGAAUGGGACCCA [G6C U20G] | 0.0978
GGCCGGCAUGGUUCCAGCGUCCUCGCUGGCGCCGGCUGGGCAACAUUCCGAGGGGACCGUCCCCUCGGUAAUGGCGAAUGGGACCCA [C13U C19G] | 0.138
GGCCGGCAUGGUCCCAGCUUCCUCGCUGGCGCCGGCUGGGCAACAUUCCGAGGGGACCGUCCCCUCAGUAAUGGCGAAUGGGACCCA [C19U G67A] | 0.0739
GGCCGGCAUGGUCCCAGCGUCCUCCCUGGCGCCGGCUGGGCAACAUUCCGAGGGGACCGUCCCCUCGGUAAUGGCGAAUGGGACCCA [C19G G25C] | 0.156
GGCCGGCAUGGUCCCAGCCUCAUCGCUGGCGCCGGCUGGGCAACAUUCCGAGGGGACGGUCCCCUCGGUAAUGGCGAAUGGGACCCA [C22A C58G] | 0.38
UGCCGGCAUGGUCCCAGCCUCCUCGCUGGCGCCGGCUGGGCAACAUUCCGAGGGGACCGUCCCCUCGGUAAAGGCGAAUGGGACCCA [G1U U72A] | 0.466
GGCCGGCAUGGUCCCAGCCUCCUCGCUGGCGCCGGCUGGGCAACAUUCCGAGGGGACCGUCCCCUCGGUAAUGGCGAAAGGGACUCA [U79A C85U] | 0.855
GGCCGGCAUGGUCCCAGCCUCCUCGCUGGCGCCCGCUGGGCAACAUUCCGAGGGGACCGUCCCCUCGGUAAAGGCGAAUGGGACCCA [G34C U72A] | 0.17
GGCCGGCAUGGUCCCAGCCUCCUCGCUGGCGUCGGCUGGGCAACAUUCCGAGGGGACCGUCCCCUCGGUAAUCGCGAAUGGGACCCA [C32U G73C] | 0.261
GGCCGGCAUGGUCCCAGCCUCCUCGCUGGCGCCGGCUGGGCAUCAUUCCGAGGGGACCGUCCCCUCGGUAAUGGCGAAUGGGACCCG [A43U A87G] | 0.274
GGCCGGCAUGGUCCCAGCCUCCUCGCUGGCGACGGCUGGGCAACAUUCCGAGGGGACCGUCCCCUCGGUAAUGGCGAAUCGGACCCA [C32A G80C] | 0.161

Variant | self-cleavage
GGCCGGCAUGGUCCCAUCCUCCUCGCUGGCGCCGGCUGGGCAACAUUCCGAGGGGACCGUCCCCUCGGUAAUGGCGAAUGGGAUCCA [G17U C84U] | 0.487
GACCGGCAUGCUCCCAGCCUCCUCGCUGGCGCCGGCUGGGCAACAUUCCGAGGGGACCGUCCCCUCGGUAAUGGCGAAUGGGACCCA [G2A G11C] | 0.0519
GGCCGGCAUGGACCCAGCCUCCUCGCUGGCGCCGGCUGGGCAACAUUCGGAGGGGACCGUCCCCUCGGUAAUGGCGAAUGGGACCCA [U12A C49G] | 0.115
GGCCGGCACGGUCCCAGCCUCCUCGCAGGCGCCGGCUGGGCAACAUUCCGAGGGGACCGUCCCCUCGGUAAUGGCGAAUGGGACCCA [U9C U27A] | 0.935
GGCCGGCAUGGCCCCAGCCUCCUCGCUGGCGCCGGCUGGGCAACAUUCCGAGGGGACCUUCCCCUCGGUAAUGGCGAAUGGGACCCA [U12C G59U] | 0.135
GGCCGGCAUGGUCCCAGCCUCCUCGCUGGCGCCGGCUGGGCAACAUUCCGAGGGGACCGUCCCCUCGGUAAUGGCAAAUGGUACCCA [G76A G82U] | 0.601
GGCCGGCAUGGUCCCAGCCUACUCGCUGGCGCCGGCUGGGCAACAUUCGGAGGGGACCGUCCCCUCGGUAAUGGCGAAUGGGACCCA [C21A C49G] | 0.102
GGCCGGCAUGGUCCCAGCCUCCUCACUGGCGCCGGCUGGGCAACAUUCCGAGGGGACCGUCCCCUCGGUAAUGGCGAAUGGGCCCCA [G25A A83C] | 0.146
GGCCGGCAUGGUCCCAGCCUCCUCGCUGGCGCCGGCCGGGCAACAUUCCGAGGGGAACGUCCCCUCGGUAAUGGCGAAUGGGACCCA [U37C C57A] | 1
GGCCGGCAUGGUCCCAGCCUCCUCGCUGGCGCCGGCUGGGCAACAUUCCGAGGGGACCAUCCCCUUGGUAAUGGCGAAUGGGACCCA [G59A C66U] | 0.849
GGCCGGCAUGGUCCCAGCCUCCUCGCUGGCGCCGGCUGGGUAACAUUCCGAGGGGACCGUCCCCUCGGUUAUGGCGAAUGGGACCCA [C41U A70U] | 0.936
GGCCGGCAUGGUCCCAGCCUCCUCGCUGGCGCCGGCUGGGCAACAUUCCGAGUGGACCGUCCCCUCGGCAAUGGCGAAUGGGACCCA [G53U U69C] | 0.931
GGCCGGCAAGGUCCCAGCCUCCUCGCUGGCGCCGGCUGGGCAACAUUCCGAGGGGACCGUCCCCUCGGUUAUGGCGAAUGGGACCCA [U9A A70U] | 0.997
GGCCGGCAUGGUCCCAGCCUCCUCGCUGGCGCCGGCUGGGCAACAUUCCUAGGGGACCGUCCCCUCGAUAAUGGCGAAUGGGACCCA [G50U G68A] | 0.694
GGCCGGCAUGGUCCCAGCCUCCUCGCUUGCGCCGGCUGGGCAACAUUACGAGGGGACCGUCCCCUCGGUAAUGGCGAAUGGGACCCA [G28U C48A] | 0.125
GGCCGGCAUGGUCCGAGCCUCCUCGCUGGCGCCGGCUGGGCAACAUUCCGAGGGGACCGUCCCCUCGGAAAUGGCGAAUGGGACCCA [C15G U69A] | 0.604

Source: the RNAGym collection of RNA variant scans (doi:10.7554/elife.80360)
